The text below walks through data of publication PMC6688928.

The target of assay [1] is FLAG-NaVAb KAV/E96C/Q150C (Hi5 cells, crosslinking assay) (UniProt A8EVM5). In words: cross-linking.
For assay [2], the target named is MBP-NaVAb/KAV/G94C/Q150C, disulfide-crosslinked (UniProt A8EVM5). Kind of assay: cryo-EM structure.
Assay [3] shares this target. Kind of assay: cross-linking.
Assay [4] has as its target FLAG-NaVAb KAV/G94C/Q150C (Hi5 cells, crosslinking assay) (UniProt A8EVM5). Kind of assay: cross-linking.
The target of assay [5] is FLAG-NaVAb E96C/Q150C (Hi5 cells, crosslinking assay) (UniProt A8EVM5). In words: cross-linking.
Assay [6] deals with FLAG-NaVAb G94C/Q150C (Hi5 cells, crosslinking assay) (UniProt A8EVM5). Kind of assay: cross-linking.
Assay [7] addresses NaVAb/V100C/Q150C Δ28, disulfide-crosslinked. In words: cross-linking.
For assay [8], the target named is FLAG-NaVAb V100C/Q150C (Hi5 cells, crosslinking assay) (UniProt A8EVM5). In words: cross-linking.

Broadly, the stoichiometry N is a count of units in the complex or per binding partner. Regarding “FLAG-NaVAb KAV/E96C/Q150C (Hi5 cells, crosslinking assay) (from UniProt A8EVM5 1-267) (natural protein)”, in assay [1], the percent crosslinked in tetramers stood at 80% and the stoichiometry N amounted to 4. As to “MBP-NaVAb/KAV/G94C/Q150C, disulfide-crosslinked (from UniProt A8EVM5 5-267) (natural protein)”, the stoichiometry N in assay [2] and in assay [3] was 4 in each case.

As to “FLAG-NaVAb KAV/G94C/Q150C (Hi5 cells, crosslinking assay) (from UniProt A8EVM5 1-267) (natural protein)”, in assay [4], the percent crosslinked in tetramers was 80% and the stoichiometry N came to 4. With “FLAG-NaVAb E96C/Q150C (Hi5 cells, crosslinking assay) (from UniProt A8EVM5 1-267) (natural protein)”, in assay [5], the percent formation of disulfide-crosslinked tetramers was 40% and the stoichiometry N amounted to 4. For the substance “FLAG-NaVAb G94C/Q150C (Hi5 cells, crosslinking assay) (from UniProt A8EVM5 1-267) (natural protein)”, in assay [6], the percent formation of disulfide-crosslinked tetramers came to 20% and the stoichiometry N is 4.

“NaVAb/V100C/Q150C Δ28, disulfide-crosslinked (domain or fragment)” displayed a stoichiometry N in assay [7] of 4. In assay [8], “FLAG-NaVAb V100C/Q150C (Hi5 cells, crosslinking assay) (from UniProt A8EVM5 1-267) (natural protein)” came in with a percent formation of disulfide-crosslinked tetramers of 80% and a stoichiometry N of 4.
